Laboratory results reported in US20240059769A1 (BIOLOJIC DESIGN, published 2024).

Target: recombinant human IL-13 (human, UniProt P35225 35-146)
Assay: cell-based or functional assay

Sequence of recombinant human IL-13 (P35225 35-146 limits assumed): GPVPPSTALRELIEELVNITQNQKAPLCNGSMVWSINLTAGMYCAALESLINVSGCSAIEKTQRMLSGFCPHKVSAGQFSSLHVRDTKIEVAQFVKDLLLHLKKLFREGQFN

HEK-IL-13 [nM] (IC50, STAT6 reporter) | Binder
0.079 | BDG38.122 (antibody, V domains shown) VH: QMQLVESGGGVVQPGRSLRLSCAASGFEFRTYGMHWVRQAPGKGLEWVAVIWDDGSNTHYADSVKGRFTITRDNSKNTLNLQMNSLRAEDTAVYYCVRAPQWYLTAEAFDLWGQGTMVTVSS VL: SYILTQPPSVSVAPGETATITCGGNLIGARLVHWYQQKPGQAPVLVIYDDSDRPSRIPERFSGSNIGNTATLTISRVEEGDEADYYCQVWDYSSDSYVFGGGTKLTVL
0.0824 | BDG38.141 (antibody, V domains shown) VH: QMQLVESGGGVVQPGRSLRLSCAASGFEFRTYGMHWVRQAPGKGLEWVAVIWDDGSNTHYADSVKGRFTITRDNSKNTLNLQMNSLRAEDTAVYYCVRAPQWYLTAEAFDLWGQGTMVTVSS VL: SYILTQPPSVSVAPGETATITCGGALIGSRLVHWYQQKPGQAPVLVIYDDSDRPSRIPERFSGSNIGNTATLTISDVEEGDEADYYCQVWDYYSNHMVFGGGTKLTVL
0.0646 | BDG38.130 (antibody, V domains shown) VH: QMQLVESGGGVVQPGRSLTLSCAASGFAFRTYGMHWVRQAPGKGLEWVAVIWDDGSNTHYADSVKGRFTITRDNSKNTLNLQMNSLRVEDTAVYYCVRAPQWYLTAEAFDLWGQGTMVTVSS VL: SYILTQPPSVSVAPGETATITCGGNLIGARLVHWYQQKPGQAPVLVIYDDSDRPSRIPERFSGSNIGNTATLTIERVEAGDEADYYCQVWDYSSNSYVFGGGTKLTVL
0.0523 | BDG38.124 (antibody, V domains shown) VH: QMQLVESGGGVVQPGRSLRLSCAASGFEFRTYGMHWVRQAPGKGLEWVGVIWDDGSNTHYADSVKGRFTITRDNSKNTLNLQMNSLRAEDTAVYYCVRAPQWYLTAEAFDLWGQGTMVTVSS VL: SYILTQPPSVSVAPGETATITCGGNLIGARLVHWYQQKPGQAPVLVIYDDSDRPSRIPERFSGSNIGNTATLTISDVEAGDEADYYCQVWDYSSDTYVFGGGTKLTVL
0.151 | BDG38.136 (antibody, V domains shown) VH: QMQLVESGGGVVQPGRSLRLSCAASGFEFRTYGMHWVRQAPGKGLEWLAVIWYDGSNTHYADSVKGRFTITRDNSKNTLNLQMNSLRAEDTAVYYCVRAPQWYNSAEAFDLWGQGTMVTVSS VL: SYVLTQPPSVSVAPGQTARITCGGNLIGAKLVHWYQQKPGQAPVLVIYDDSDRPSHIPERFSGSNSGNTATLTISRVEAGDEADYYCQVWDYSSDTMVFGGGTKLTVL
0.0584 | BDG38.142 (antibody, V domains shown) VH: QMQLVESGGGVVQPGRSLTLSCAASGFEFRTYGMHWVRQAPGKGLEWVAVIWDDGSNTHYADSVKGRFTITRDNSKNTLNLQMNSLRAEDTAVYYCVRAPQWYLTAEAFDLWGQGTMVTVSS VL: SYILTQPPSVSVAPGQTATITCGGNLIGAKLVHWYQQKPGQAPVLVVYDDSDRPSRIPERFSGSNIGNTATLTIERVEEGDEADYYCQVWDYYSHTMVFGGGTKLTVL
0.044 | BDG38.123 (antibody, V domains shown) VH: QMQLVESGGGVVQPGRSLRLSCAASGFEFRTYGMHWVRQAPGKGLEWVAVIWDDGSNTHYADSVKGRFTITRDNSKNTLNLQMNSLRAEDTAVYYCVRAPQWYLTAEAFDLWGQGTMVTVSS VL: SYILTQPPSVSVAPGETATITCGGNLIGARLVHWYQQKPGQAPVLVIYDDSDRPSRIPERFSGSNIGNTATLTISDVEAGDEADYYCQVWDYSSDTYVFGGGTKLTVL
0.029 | BDG38.133 (antibody, V domains shown) VH: QMQLVESGGGVVQPGRSLRLSCAASGFEFRTYGMHWVRQAPGKGLEWVAVIWDDGSNTHYADSVKGRFTITRDNSKNTLNLQMNSLRAEDTAVYYCVRAPQWYLTAEAFDLWGQGTMVTVSS VL: SYILTQPPSVSVAPGETATITCGGNLIGARLVHWYQQKPGQAPVLVIYDDSDRPSRIPERFSGSNIGNTATLTISRVEAGDEADYYCQVWDYSSDTYVFGGGTKLTVL
